Experiments:
human PDGF-BB [1] = biological target: T1, human PDGF-BB (human, UniProt P01127 82-190); test: cell-based or functional assay
human PDGF-BB [2] = biological target: T1, human PDGF-BB; test: cell-based or functional assay; remark: listed apart in the source
human PDGF-BB [3] = biological target: T1, human PDGF-BB; test: SPR (BIAcore T200) kinetic screening; PDGF-BB coupled on C1 chip, antibody injected
human PDGF-BB [4] = biological target: T1, human PDGF-BB; test: SPR; IgG
human PDGF-BB [5] = biological target: T1, human PDGF-BB; test: SPR; apparent KD** of the IgG
human PDGF-BB [6] = biological target: T1, human PDGF-BB; test: competition ELISA; biotinylated human PDGF-BB with antibody on coated Fc-tagged PDGF-BB receptor (competitor)
Experimental: The IC₅₀ was calculated with a four parameter logistic model using GraphPad Prism 6.0 software.

cynomolgus PDGF-BB [7] = biological target: T2, cynomolgus PDGF-BB (cynomolgus, UniProt A0A2K5UX81 82-190); test: SPR (BIAcore B4000); PDGF-BB coupled on C1 chip, antibody injected; apparent KD (avidity)
T2 construct: also called cynPDGF-BB
T2 sequence (A0A2K5UX81 entry or part of it): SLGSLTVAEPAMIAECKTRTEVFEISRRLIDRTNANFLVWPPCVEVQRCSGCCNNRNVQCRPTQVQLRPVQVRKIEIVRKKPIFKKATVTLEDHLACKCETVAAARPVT
Experimental: (§1) The binding analysis was carried out using a surface plasmon resonance spectroscopy-based technology applying a BIAcore B4000 system (GE Healthcare). […] Utilizing a read out time of 180 sec. association phase and 600 sec. dissociation phase the apparent kₐ and apparent kd were calculated. The apparent KD (avidity) was calculated using the BlAcore T200 v2.0 fitting software.

human PDGF-BB [8] = biological target: T1, human PDGF-BB; test: as above
Experimental: as §1

cynomolgus PDGF-BB [9] = biological target: T2, cynomolgus PDGF-BB; test: ELISA, antigen coated
Experimental: (§2) The binding analysis was carried out using an enzyme-linked immunosorbent assay (ELISA)-based technology. […] The EC₅₀ was calculated with a four parameter logistic model using GraphPad Prism 6.0 software.

rat PDGF-BB = rat PDGF-BB (rat, UniProt Q05028 74-182); test: ELISA, antigen coated
Sequence of rat PDGF-BB (Q05028 74-182 limits assumed): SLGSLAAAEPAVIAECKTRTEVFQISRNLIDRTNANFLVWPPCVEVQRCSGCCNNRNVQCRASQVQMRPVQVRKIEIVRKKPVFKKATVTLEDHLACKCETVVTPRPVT
Experimental: as §2

murine PDGF-BB = biological target: T3, murine PDGF-BB (murine, UniProt P31240 82-190); test: ELISA, antigen coated
T3 construct: also called muPDGF-BB
T3 sequence (P31240 82-190 limits assumed): as the sequence (Q05028 74-182 limits assumed) above, with V83I, V102I counted along it
Experimental: as §2

human PDGF-BB [10] = biological target: T1, human PDGF-BB; test: ELISA, antigen coated
Experimental: as §2

cynomolgus PDGF-BB [11] = biological target: T2, cynomolgus PDGF-BB; test: SPR (BIAcore B4000); PDGF-BB coupled on C1 chip, antibody injected; apparent value
Experimental: as §1

human PDGF-BB [12] = biological target: T1, human PDGF-BB; test: as above
Experimental: as §1

human PDGF-BB [13] = biological target: T1, human PDGF-BB; test: SPR (BIAcore T200); PDGF-BB coupled on CM3 chip, antibody injected (Example 52); design: t½: unit not given here
human PDGF-BB [14] = biological target: T1, human PDGF-BB; test: SPR (BIAcore T200); PDGF-BB coupled on CM3 chip, Fab injected
human PDGF-BB [15] = biological target: T1, human PDGF-BB; test: SPR; Fab
human PDGF-BB [16] = biological target: T1, human PDGF-BB; test: SPR; apparent KD* of the Fab

T1 sequence (P01127 82-190 limits assumed): as the sequence (A0A2K5UX81 entry or part of it) above, with V7I counted along it

Binder	IC50 Proliferation 3T3 (human PDGF-BB [1]) [mg/L]	Balb-C3T3 Proliferation, IC50 (human PDGF-BB [2]) [nM]	Pericytes Migration, IC50 (human PDGF-BB [2]) [nM]	Pericytes Proliferation, IC50 (human PDGF-BB [2]) [nM]	koff (human PDGF-BB [3]) [s⁻¹]	t½ (human PDGF-BB [3]) [min]	T½ (human PDGF-BB [4]) [min]	Kd (human PDGF-BB [5]) [nM]	IC50 (human PDGF-BB [6]) [mg/L]	Kd (cynomolgus PDGF-BB [7]) [nM]	Kd (human PDGF-BB [8]) [nM]	EC50 (cynomolgus PDGF-BB [9]) [mg/L]	EC50 (rat PDGF-BB) [mg/L]	EC50 (murine PDGF-BB) [mg/L]	EC50 (human PDGF-BB [10]) [mg/L]	koff (cynomolgus PDGF-BB [11]) [s⁻¹]	kon (cynomolgus PDGF-BB [11]) [M⁻¹ s⁻¹]	koff (human PDGF-BB [12]) [s⁻¹]	kon (human PDGF-BB [12]) [M⁻¹ s⁻¹]	Kd (human PDGF-BB [14]) [nM]	other results
antibody 0085 (antibody, V domains shown, Human antibody from a human Ig locus transgenic rabbit) VH: EVQLVESGGGLVQPGGSLRLSCAASGFTFSSYWMSWVRQAPEKGLEWVSTISDGGGLTYYADSVKGRFTISRDNAKNSLYLQMNSLRAEDTAVYYCAESGGYTDWLFGYWGQGTLVTVSS VL: not shown	0.0318	0.06	0.15	0.11	0.000102	114	146	0.023	0.0178	0.0478	0.0476	0.0153	0.016	0.025	0.00755	4.52e-05	940000	4.4e-05	930000		
antibody 0106 (Fab, V domains shown) VH: EVQLVESGGGLVQPGGSLRLSCAASGFTFSSYWMSWVRQAPEKGLEWVSTISDGGGLTYYADSVKGRFTISRDNAKNSLYLQMNSLRAEDTAVYYCAESGGYTDWLFGYWGQGTLVTVSS VL: not shown																				2	Kd (human PDGF-BB [13]): 1 nM; koff (human PDGF-BB [13]): 0.000291 s⁻¹; kon (human PDGF-BB [13]): 294000 M⁻¹ s⁻¹; t½ (human PDGF-BB [13]): 40; koff (human PDGF-BB [14]): 0.000374 s⁻¹; kon (human PDGF-BB [14]): 202000 M⁻¹ s⁻¹; t½ (human PDGF-BB [14]): 30.9 min; T½ (human PDGF-BB [15]): 30.9 min; Kd (human PDGF-BB [16]): 2 nM
antibody 0086 (antibody, V domains shown, Human antibody from a human Ig locus transgenic rabbit) VH: EVQLVESGGGLVQPGGSLRLSCAASGFTFSSYWMSWVRQAPEKGLEWVSTISDGGGLTYYADSVKGRFTISRDNAKNSLYLQMNSLRAEDTAVYYCAESGGYTDWLFGYWGQGTLVTVSS VL: not shown	0.056	0.11	0.09	0.09	7.93e-05	146	41	0.03	0.0117	0.0178	0.0218	0.0162	0.0106	0.0141	0.012	1.84e-05	1.04e+06	2.3e-05	1.04e+06		
antibody 0107 (Fab, V domains shown) VH: EVQLVESGGGLVQPGGSLRLSCAASGFTFSSYWMSWVRQAPEKGLEWVSTISDGGGLTYYADSVKGRFTISRDNAKNSLYLQMNSLRAEDTAVYYCAESGGYTDWLFGYWGQGTLVTVSS VL: not shown																				2	koff (human PDGF-BB [14]): 0.000362 s⁻¹; kon (human PDGF-BB [14]): 195000 M⁻¹ s⁻¹; t½ (human PDGF-BB [14]): 31.9 min; T½ (human PDGF-BB [15]): 31.9 min; Kd (human PDGF-BB [16]): 2 nM
